Measured values taken from patent publication US20170334962A1 (TEXAS A AND M UNIVERSITY SYSTEM, published 2017).

Key:
[1] = target: T1, recombinant soluble mouse FcRn (mouse, UniProt Q61559 22-290; P01887 21-119, limits assumed); experiment: SPR (BIAcore T200), fusion immobilized on a CM5 chip, mFcRn as analyte, pH 6.0; value for the higher affinity site; pH 6.0
T1 construct: also called mFcRn
T1 sequence (looked up) 1: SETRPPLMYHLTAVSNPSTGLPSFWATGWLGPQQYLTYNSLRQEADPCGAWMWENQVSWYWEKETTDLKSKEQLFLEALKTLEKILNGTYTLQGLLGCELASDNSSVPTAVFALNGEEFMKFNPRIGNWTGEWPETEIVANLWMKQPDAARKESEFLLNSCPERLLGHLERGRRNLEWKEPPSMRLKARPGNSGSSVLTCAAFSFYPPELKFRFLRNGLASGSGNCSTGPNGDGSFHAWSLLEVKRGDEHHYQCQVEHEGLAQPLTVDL
T1 sequence (looked up) 2: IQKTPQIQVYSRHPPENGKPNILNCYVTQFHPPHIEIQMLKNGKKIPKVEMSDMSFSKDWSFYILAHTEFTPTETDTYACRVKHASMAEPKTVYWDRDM
Procedure: (§1) Equilibrium dissociation constants (KDs) for the binding of Fc-OVA(323-339) (WT, TT-HN and H435A) to recombinant mouse FcRn were determined using surface plasmon resonance (BlAcore T200; GE Healthcare) and previously described methods. CM5 chips were coupled with recombinant Fc(WT)-OVA(323-339), Fc(TT-HN)-OVA(323-339), and Fc(H435A)-OVA(323-339) to densities of ˜500-900 RU followed by injection of mFcRn at various concentrations (1-2000 nM) at a flow rate of 10 μl/min using PBS (pH 6.0 or 7.4; Lonza), 0.01% (v/v) Tween-20 as running buffer. Flow cells were regenerated at the end of each cycle using 0.15 M NaCl, 0.1 M sodium bicarbonate (pH 8.5) buffer. FcRn binds to two sites on IgG-Fc that are not equivalent. […] The data were processed as described previously.

[2] = target: T1, recombinant soluble mouse FcRn; experiment: SPR (BIAcore T200), fusion immobilized on a CM5 chip, mFcRn as analyte, pH 6.0
Procedure: as §1

[3] = target: T1, recombinant soluble mouse FcRn; experiment: SPR (BIAcore T200), fusion immobilized on a CM5 chip, mFcRn as analyte, pH 6.0; value for the higher affinity site
Procedure: as §1

[4] = target: T1, recombinant soluble mouse FcRn; experiment: SPR (BIAcore T200), fusion immobilized on a CM5 chip, mFcRn as analyte, pH 7.4; value for the higher affinity site
Procedure: as §1

[5] = target: T1, recombinant soluble mouse FcRn; experiment: SPR (BIAcore 2000), Fc-hinge immobilized by amine coupling, soluble mouse FcRn as analyte, pH 6.0; value for the higher affinity site; pH 6.0
Procedure: (§2) Equilibrium dissociation constants of WT and mutated mouse Fc-hinge fragments (IgG1-derived) for binding to recombinant mouse FcRn were determined using surface plasmon resonance and a BlAcore 2000. Mouse Fc-hinge fragments were immobilized by amine coupling chemistry (to a density of ˜250-850 RU) and BlAcore experiments carried out as described previously, using soluble mouse FcRn in Dulbecco's phosphate-buffered saline (DPBS) plus 0.01% Tween pH 6.0 or 7.4 as analyte. FcRn binds to two sites on IgG that are not equivalent. […] The data were processed as described previously.

[6] = target: T1, recombinant soluble mouse FcRn; experiment: SPR (BIAcore 2000), Fc-hinge immobilized by amine coupling, soluble mouse FcRn as analyte, pH 7.4; value for the higher affinity site
Procedure: as §2

[7] = target: T1, recombinant soluble mouse FcRn; experiment: SPR (BIAcore 2000), Fc-hinge immobilized by amine coupling, soluble mouse FcRn as analyte, pH 6.0; value for the higher affinity site
Procedure: as §2

B1: mIgG1-Fc(WT)-OVA(323-339) (Fc fusion)
chain: VPRDCGCKPCICTVPEVSSVFIFPPKPKDVLTITLTPKVTCVVVDISKDDPEVQFSWFVDDVEVHTAQTQPREEQFNSTFRSVSELPIMHQDWLNGKEFKCRVNSAAFPAPIEKTISKTKGRPKAPQVYTIPPPKEQMAKDKVSLTCMITDFFPEDITVEWQWNGQPAENYKNTQPIMDTDGSYFVYSKLNVQKSNWEAGNTFTCSVLHEGLHNHHTEKSLSHSPGKGSGGISQAVHAAHAEINEAGRGSGHHHHHH
[1]
  Kd: 300 nM

B2: mIgG1-Fc(H435A)-OVA(323-339) (Fc fusion)
chain: VPRDCGCKPCICTVPEVSSVFIFPPKPKDVLTITLTPKVTCVVVDISKDDPEVQFSWFVDDVEVHTAQTQPREEQFNSTFRSVSELPIMHQDWLNGKEFKCRVNSAAFPAPIEKTISKTKGRPKAPQVYTIPPPKEQMAKDKVSLTCMITDFFPEDITVEWQWNGQPAENYKNTQPIMDTDGSYFVYSKLNVQKSNWEAGNTFTCSVLHEGLHNAHTEKSLSHSPGKGSGGISQAVHAAHAEINEAGRGSGHHHHHH
notes: The limits of the leader are inferred as for m4
[2]
  binding result: no binding (tested: mFcRn injected at 1-2000 nM)

B3: mIgG1-Fc(TT-HN)-OVA(323-339) (Fc fusion)
chain: VPRDCGCKPCICTVPEVSSVFIFPPKPKDVLYITLEPKVTCVVVDISKDDPEVQFSWFVDDVEVHTAQTQPREEQFNSTFRSVSELPIMHQDWLNGKEFKCRVNSAAFPAPIEKTISKTKGRPKAPQVYTIPPPKEQMAKDKVSLTCMITDFFPEDITVEWQWNGQPAENYKNTQPIMDTDGSYFVYSKLNVQKSNWEAGNTFTCSVLHEGLKFHHTEKSLSHSPGKGSGGISQAVHAAHAEINEAGRGSGHHHHHH
notes: The limits of the leader are inferred as for m4; also called Fc(T252Y/T256E/H433K/N434F)-antigen
[3]
  Kd: 3 nM
[4]
  Kd: 14.9 nM

B4: WT mouse Fc-hinge fragment (IgG1-derived) (other, UniProt P01868 98-324, looked up)
chain: VPRDCGCKPCICTVPEVSSVFIFPPKPKDVLTITLTPKVTCVVVDISKDDPEVQFSWFVDDVEVHTAQTQPREEQFNSTFRSVSELPIMHQDWLNGKEFKCRVNSAAFPAPIEKTISKTKGRPKAPQVYTIPPPKEQMAKDKVSLTCMITDFFPEDITVEWQWNGQPAENYKNTQPIMNTNGSYFVYSKLNVQKSNWEAGNTFTCSVLHEGLHNHHTEKSLSHSPGK
notes: domain: Fc-hinge; Recombinant Fc-hinge made in CHO-S cells by methods analogous to those for the Fc-MBP fusions; also called WT Fc-hinge
[5]
  Kd: 218 nM

B5: m-set-1 mouse Fc-hinge fragment (IgG1-derived; T252L/T254S/T256F/E380A/H433K/N434F) (other, UniProt P01868 98-324, looked up)
chain: VPRDCGCKPCICTVPEVSSVFIFPPKPKDVLLISLFPKVTCVVVDISKDDPEVQFSWFVDDVEVHTAQTQPREEQFNSTFRSVSELPIMHQDWLNGKEFKCRVNSAAFPAPIEKTISKTKGRPKAPQVYTIPPPKEQMAKDKVSLTCMITDFFPEDITVAWQWNGQPAENYKNTQPIMNTNGSYFVYSKLNVQKSNWEAGNTFTCSVLHEGLKFHHTEKSLSHSPGK
notes: domain: Fc-hinge; also called mutation-set-1
[6]
  Kd: 115 nM
[7]
  Kd: 2.6 nM

B6: m-set-2 mouse Fc-hinge fragment (IgG1-derived; T252Y/T256E/H433K/N434F) (other, UniProt P01868 98-324, looked up)
chain: VPRDCGCKPCICTVPEVSSVFIFPPKPKDVLYITLEPKVTCVVVDISKDDPEVQFSWFVDDVEVHTAQTQPREEQFNSTFRSVSELPIMHQDWLNGKEFKCRVNSAAFPAPIEKTISKTKGRPKAPQVYTIPPPKEQMAKDKVSLTCMITDFFPEDITVEWQWNGQPAENYKNTQPIMNTNGSYFVYSKLNVQKSNWEAGNTFTCSVLHEGLKFHHTEKSLSHSPGK
notes: domain: Fc-hinge; also called mutation-set-2; TT-HN
[6]
  Kd: 20.4 nM
[7]
  Kd: 1.1 nM
